Experimental data published in IntAct's records for PubMed 36931259.

B1: 14-3-3 protein sigma (Homo sapiens), P31947 (parent)
chain: MERASLIQKAKLAEQAERYEDMAAFMKGAVEKGEELSCEERNLLSVAYKNVVGGQRAAWRVLSSIEQKSNEEGSEEKGPEVREYREKVETELQGVCDTVLGLLDSHLIKEAGDAESRVFYLKMKGDYYRYLAEVATGDDKKRIIDSARSAYQEAMDISKKEMPPTNPIRLGLALNFSVFHYEIANSPEEAISLAKTTFDEAMADLHTLSEDSYKDSTLIMQLLRDNLTLWTADNAGEEGGEAPQEPQS
partner: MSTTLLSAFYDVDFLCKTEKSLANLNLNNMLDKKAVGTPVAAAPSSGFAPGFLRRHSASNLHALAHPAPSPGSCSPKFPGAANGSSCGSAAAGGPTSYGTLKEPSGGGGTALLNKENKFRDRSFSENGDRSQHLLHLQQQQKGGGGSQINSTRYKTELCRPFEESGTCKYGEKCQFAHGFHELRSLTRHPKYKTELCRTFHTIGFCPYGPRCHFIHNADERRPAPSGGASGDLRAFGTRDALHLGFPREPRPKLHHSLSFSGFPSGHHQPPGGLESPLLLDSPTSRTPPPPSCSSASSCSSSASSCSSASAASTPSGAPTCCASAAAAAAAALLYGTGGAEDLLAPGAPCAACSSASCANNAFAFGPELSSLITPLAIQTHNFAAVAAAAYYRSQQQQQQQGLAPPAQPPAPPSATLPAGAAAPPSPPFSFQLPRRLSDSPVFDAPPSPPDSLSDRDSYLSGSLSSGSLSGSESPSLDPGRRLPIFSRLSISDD
B2: 14-3-3 protein sigma (Homo sapiens), P31947 (parent)
chain: B1 chain
partner: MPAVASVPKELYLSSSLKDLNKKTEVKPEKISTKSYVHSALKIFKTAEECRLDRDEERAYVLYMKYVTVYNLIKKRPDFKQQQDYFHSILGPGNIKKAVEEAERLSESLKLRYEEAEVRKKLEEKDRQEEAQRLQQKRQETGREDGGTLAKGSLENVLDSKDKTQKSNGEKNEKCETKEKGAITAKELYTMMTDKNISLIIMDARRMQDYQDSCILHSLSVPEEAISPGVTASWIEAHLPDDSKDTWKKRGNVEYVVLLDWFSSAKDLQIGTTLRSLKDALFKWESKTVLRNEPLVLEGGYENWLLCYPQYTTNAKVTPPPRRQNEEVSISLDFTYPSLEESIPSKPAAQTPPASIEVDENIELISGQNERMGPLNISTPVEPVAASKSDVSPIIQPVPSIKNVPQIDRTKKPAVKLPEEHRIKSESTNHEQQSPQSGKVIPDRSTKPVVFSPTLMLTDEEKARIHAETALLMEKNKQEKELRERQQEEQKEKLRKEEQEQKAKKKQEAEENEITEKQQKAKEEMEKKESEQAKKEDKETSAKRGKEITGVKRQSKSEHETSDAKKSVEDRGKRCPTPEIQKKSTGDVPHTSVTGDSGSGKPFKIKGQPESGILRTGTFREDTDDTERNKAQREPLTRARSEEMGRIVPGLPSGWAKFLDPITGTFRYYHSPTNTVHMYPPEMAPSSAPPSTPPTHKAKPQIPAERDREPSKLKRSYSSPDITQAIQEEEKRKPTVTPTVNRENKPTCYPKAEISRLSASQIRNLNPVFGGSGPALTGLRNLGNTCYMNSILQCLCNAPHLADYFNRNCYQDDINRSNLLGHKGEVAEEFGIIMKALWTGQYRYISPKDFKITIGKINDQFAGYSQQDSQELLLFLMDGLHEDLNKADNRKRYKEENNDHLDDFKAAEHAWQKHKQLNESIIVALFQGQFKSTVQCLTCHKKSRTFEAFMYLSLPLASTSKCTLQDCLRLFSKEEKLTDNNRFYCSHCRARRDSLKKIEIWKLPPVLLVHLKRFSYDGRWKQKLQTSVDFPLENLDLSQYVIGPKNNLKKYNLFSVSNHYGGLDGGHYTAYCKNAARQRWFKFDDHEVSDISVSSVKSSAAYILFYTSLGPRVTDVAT
B3: 14-3-3 protein sigma (Homo sapiens), P31947 (parent)
chain: B1 chain
partner: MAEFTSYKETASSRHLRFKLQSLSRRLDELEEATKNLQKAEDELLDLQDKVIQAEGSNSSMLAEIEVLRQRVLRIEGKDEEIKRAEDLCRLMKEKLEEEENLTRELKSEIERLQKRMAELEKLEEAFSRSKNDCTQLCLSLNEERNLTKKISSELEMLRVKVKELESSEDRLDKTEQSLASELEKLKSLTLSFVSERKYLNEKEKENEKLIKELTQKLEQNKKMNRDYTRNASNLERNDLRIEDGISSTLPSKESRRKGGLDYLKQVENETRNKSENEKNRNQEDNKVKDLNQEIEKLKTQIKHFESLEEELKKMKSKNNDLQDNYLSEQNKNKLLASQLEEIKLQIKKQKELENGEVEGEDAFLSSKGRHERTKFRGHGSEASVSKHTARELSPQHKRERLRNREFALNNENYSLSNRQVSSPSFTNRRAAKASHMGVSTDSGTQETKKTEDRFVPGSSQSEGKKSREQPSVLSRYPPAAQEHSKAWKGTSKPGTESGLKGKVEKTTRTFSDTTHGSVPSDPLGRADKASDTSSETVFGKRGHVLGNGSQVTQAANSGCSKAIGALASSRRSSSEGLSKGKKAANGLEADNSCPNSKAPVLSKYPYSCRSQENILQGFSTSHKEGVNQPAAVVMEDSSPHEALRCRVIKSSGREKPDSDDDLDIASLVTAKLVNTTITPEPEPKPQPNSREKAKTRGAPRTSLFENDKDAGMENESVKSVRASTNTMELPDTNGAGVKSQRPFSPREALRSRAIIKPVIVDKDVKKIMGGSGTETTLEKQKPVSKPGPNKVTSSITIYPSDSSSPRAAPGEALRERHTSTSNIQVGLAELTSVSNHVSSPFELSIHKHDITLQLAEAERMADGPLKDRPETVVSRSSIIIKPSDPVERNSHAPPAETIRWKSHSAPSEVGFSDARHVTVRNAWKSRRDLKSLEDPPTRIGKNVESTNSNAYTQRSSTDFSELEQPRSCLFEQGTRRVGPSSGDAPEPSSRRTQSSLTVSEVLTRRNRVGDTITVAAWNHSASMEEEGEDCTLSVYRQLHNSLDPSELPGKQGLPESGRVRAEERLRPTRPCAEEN
B4: 14-3-3 protein sigma (Homo sapiens), P31947 (parent)
chain: B1 chain
partner: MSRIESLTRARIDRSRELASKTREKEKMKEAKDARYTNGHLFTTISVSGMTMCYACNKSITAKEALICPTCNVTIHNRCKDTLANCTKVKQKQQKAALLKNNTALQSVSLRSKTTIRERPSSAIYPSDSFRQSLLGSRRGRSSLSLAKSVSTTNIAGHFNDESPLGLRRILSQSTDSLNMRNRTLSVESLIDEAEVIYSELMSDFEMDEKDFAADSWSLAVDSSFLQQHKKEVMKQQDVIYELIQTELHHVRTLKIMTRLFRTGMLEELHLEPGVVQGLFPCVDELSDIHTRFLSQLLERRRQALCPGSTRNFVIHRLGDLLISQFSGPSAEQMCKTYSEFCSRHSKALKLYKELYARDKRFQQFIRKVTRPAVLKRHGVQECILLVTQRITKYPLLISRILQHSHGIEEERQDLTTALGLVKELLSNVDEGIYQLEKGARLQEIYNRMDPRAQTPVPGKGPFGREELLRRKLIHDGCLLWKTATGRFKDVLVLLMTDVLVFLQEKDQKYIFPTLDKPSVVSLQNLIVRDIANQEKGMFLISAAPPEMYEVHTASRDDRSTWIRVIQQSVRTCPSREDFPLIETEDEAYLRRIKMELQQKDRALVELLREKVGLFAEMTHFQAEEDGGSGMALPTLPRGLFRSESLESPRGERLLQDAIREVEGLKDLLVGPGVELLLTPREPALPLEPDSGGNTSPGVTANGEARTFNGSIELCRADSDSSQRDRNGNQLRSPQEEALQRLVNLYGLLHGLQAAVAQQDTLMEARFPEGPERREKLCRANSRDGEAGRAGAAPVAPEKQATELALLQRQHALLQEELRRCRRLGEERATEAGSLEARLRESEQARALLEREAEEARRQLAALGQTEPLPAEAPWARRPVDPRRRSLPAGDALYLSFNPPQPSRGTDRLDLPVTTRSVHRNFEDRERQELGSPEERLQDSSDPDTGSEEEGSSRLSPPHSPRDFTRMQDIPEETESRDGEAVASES
B5: 14-3-3 protein sigma (Homo sapiens), P31947 (parent)
chain: B1 chain
partner: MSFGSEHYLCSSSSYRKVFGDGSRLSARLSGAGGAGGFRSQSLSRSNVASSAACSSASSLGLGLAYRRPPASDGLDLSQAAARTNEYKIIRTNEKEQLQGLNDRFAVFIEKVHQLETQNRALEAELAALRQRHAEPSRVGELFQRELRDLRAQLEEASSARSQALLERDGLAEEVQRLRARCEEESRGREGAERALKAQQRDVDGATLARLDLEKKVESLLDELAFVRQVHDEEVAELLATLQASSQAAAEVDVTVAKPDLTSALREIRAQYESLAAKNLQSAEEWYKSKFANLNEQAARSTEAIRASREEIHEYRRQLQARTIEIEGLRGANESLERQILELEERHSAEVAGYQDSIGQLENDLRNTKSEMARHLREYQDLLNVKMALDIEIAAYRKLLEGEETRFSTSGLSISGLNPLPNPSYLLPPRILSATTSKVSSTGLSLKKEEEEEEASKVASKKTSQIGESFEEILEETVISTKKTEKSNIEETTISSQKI

Variants of: B1
Conditions: with tisd_human ZFP36L2, P47974

Variant	effect of a mutation on the interaction
MERASLIQKAKLAEQAERYEDMAAFMKGAVEKGEELSCEERNLLSVAYENVVGGQEAAWRVLSSIEQKSNEEGSEEKGPEVREYREKVETELQGVCDTVLGLLDSHLIKEAGDAESRVFYLKMKGDYYRYLAEVATGDDKKRIIDSARSAYQEAMDISKKEMPPTNPIRLGLALNFSDFHYEIANSPEEAISLAKTTFDEAMADLHTLSEDSYKDSTLIMQLLRDNLTLWTADNAGEEGGEAPQEPQS [K49E;R56E;V178D]	decreasing interaction strength

Variants of: B2
Conditions: with ubp8_human USP8, P40818

Variant	effect of a mutation on the interaction
MERASLIQKAKLAEQAERYEDMAAFMKGAVEKGEELSCEERNLLSVAYENVVGGQEAAWRVLSSIEQKSNEEGSEEKGPEVREYREKVETELQGVCDTVLGLLDSHLIKEAGDAESRVFYLKMKGDYYRYLAEVATGDDKKRIIDSARSAYQEAMDISKKEMPPTNPIRLGLALNFSDFHYEIANSPEEAISLAKTTFDEAMADLHTLSEDSYKDSTLIMQLLRDNLTLWTADNAGEEGGEAPQEPQS [K49E;R56E;V178D]	decreasing interaction strength

Variants of: B3
Conditions: with luzp1_human LUZP1, Q86V48

Variant	effect of a mutation on the interaction
MERASLIQKAKLAEQAERYEDMAAFMKGAVEKGEELSCEERNLLSVAYENVVGGQEAAWRVLSSIEQKSNEEGSEEKGPEVREYREKVETELQGVCDTVLGLLDSHLIKEAGDAESRVFYLKMKGDYYRYLAEVATGDDKKRIIDSARSAYQEAMDISKKEMPPTNPIRLGLALNFSDFHYEIANSPEEAISLAKTTFDEAMADLHTLSEDSYKDSTLIMQLLRDNLTLWTADNAGEEGGEAPQEPQS [K49E;R56E;V178D]	decreasing interaction strength

Variants of: B4
Conditions: with arhg2_human ARHGEF2, Q92974

Variant	effect of a mutation on the interaction
MERASLIQKAKLAEQAERYEDMAAFMKGAVEKGEELSCEERNLLSVAYENVVGGQEAAWRVLSSIEQKSNEEGSEEKGPEVREYREKVETELQGVCDTVLGLLDSHLIKEAGDAESRVFYLKMKGDYYRYLAEVATGDDKKRIIDSARSAYQEAMDISKKEMPPTNPIRLGLALNFSDFHYEIANSPEEAISLAKTTFDEAMADLHTLSEDSYKDSTLIMQLLRDNLTLWTADNAGEEGGEAPQEPQS [K49E;R56E;V178D]	decreasing interaction strength

Variants of: B5
Conditions: with ainx_human INA

Variant	effect of a mutation on the interaction
MERASLIQKAKLAEQAERYEDMAAFMKGAVEKGEELSCEERNLLSVAYENVVGGQEAAWRVLSSIEQKSNEEGSEEKGPEVREYREKVETELQGVCDTVLGLLDSHLIKEAGDAESRVFYLKMKGDYYRYLAEVATGDDKKRIIDSARSAYQEAMDISKKEMPPTNPIRLGLALNFSDFHYEIANSPEEAISLAKTTFDEAMADLHTLSEDSYKDSTLIMQLLRDNLTLWTADNAGEEGGEAPQEPQS [K49E;R56E;V178D]	decreasing interaction strength
